Measured values from the supplement of paper PMC11246515.
± gives the standard deviation of the averaged measurements.

Test: total protein half-life in vivo (active degradation + dilution); higher = more stable protein
[1] = E. coli NCM3722 delta-clpP, growth: N-lim chemostat, doubling time 6 h
[2] = E. coli NCM3722 delta-hslV, growth: N-lim chemostat, doubling time 6 h
[3] = E. coli NCM3722 delta-smpB, growth: N-lim chemostat, doubling time 6 h
[4] = wild type E. coli NCM3722, growth: C-lim chemostat, doubling time 3 h
[5] = wild type E. coli NCM3722, growth: C-lim chemostat, doubling time 6 h
[6] = wild type E. coli NCM3722, growth: C-lim chemostat, doubling time 12 h
[7] = wild type E. coli NCM3722, growth: N-lim chemostat, doubling time 6 h
[8] = wild type E. coli NCM3722, growth: N-lim chemostat, doubling time 12 h
[9] = wild type E. coli NCM3722, growth: P-lim chemostat, doubling time 6 h
[10] = wild type E. coli NCM3722, growth: P-lim chemostat, doubling time 12 h
[11] = E. coli NCM3722 delta-clpP delta-lon delta-hslV, growth: N-lim chemostat, doubling time 6 h
[12] = E. coli NCM3722 delta-lon, growth: N-lim chemostat, doubling time 6 h

Substance	total protein half-life in vivo [1] [h]	total protein half-life in vivo [2] [h]	total protein half-life in vivo [3] [h]	total protein half-life in vivo [4] [h]	total protein half-life in vivo [5] [h]	total protein half-life in vivo [6] [h]	total protein half-life in vivo [7] [h]	total protein half-life in vivo [8] [h]	total protein half-life in vivo [9] [h]	total protein half-life in vivo [10] [h]	total protein half-life in vivo [11] [h]	total protein half-life in vivo [12] [h]
MNLDDKSLFLDAMEDVQPLKRATDVHWHPTRNQRAPQRIDTLQLDNFLTTGFLDIIPLSQPLEFRREGLQHGVLDKLRSGKYPQQASLNLLRQPVEECRKMVFSFIQQALADGLRNVLIIHGKGRDDKSHANIVRSYVARWLTEFDDVQAYCTALPHHGGSGACYVALRKTAQAKQENWERHAKRSR	3.15 ± 0.09	0.92 ± 0.056	0.889	0.985	1.35	1.42	1.06 ± 0.055	1.33 ± 0.064	1.28	1.8 ± 0.54		
MTAPLTLLIVEDETPLAEMHAEYIRHIPGFSQILLAGNLAQARMMIERFKPGLILLDNYLPDGRGINLLHELVQAHYPGDVVFTTAASDMETVSEAVRCGVFDYLIKPIAYERLGQTLTRFRQRKHMLESIDSASQKQIDEMFNAYARGEPKDELPTGIDPLTLNAVRKLFKEPGVQHTAETVAQALTISRTTARRYLEYCASRHLIIAEIVHGKVGRPQRIYHSG [P0AEF4]	3.389 ± 0.03	3.43	3.22	2.24	5.33	8.21	3 ± 0.62	5.34 ± 0.18	3.33 ± 0.5	7.63 ± 0.19	4.85	
MLSFLWDLASFIVALGVLITVHEFGHFWVARRCGVRVERFSIGFGKALWRRTDKLGTEYVIALIPLGGYVKMLDERAEPVVPELRHHAFNNKSVGQRAAIIAAGPVANFIFAIFAYWLVFIIGVPGVRPVVGEIAANSIAAEAQIAPGTELKAVDGIETPDWDAVRLQLVDKIGDESTTITVAPFGSDQRRDVKLDLRHWAFEPDKEDPVSSLGIRPRGPQIEPVLENVQPNSAASKAGLQAGDRIVKVDGQPLTQWVTFVMLVRDNPGKSLALEIERQGSPLSLTLIPESKPGNGKAIGFVGIEPKVIPLPDEYKVVRQYGPFNAIVEATDKTWQLMKLTVSMLGKLITGDVKLNNLSGPISIAKGAGMTAELGVVYYLPFLALISVNLGIINLFPLPVLDGGHLLFLAIEKIKGGPVSERVQDFCYRIGSILLVLLMGLALFNDFSRL [P0AEH1]	4.76 ± 0.25	4.25 ± 0.049	4.624 ± 0.034	2.69 ± 0.22	4.23 ± 0.79	7.59 ± 0.17	4.2 ± 0.15	7.28 ± 0.63	4.17 ± 0.6	6.21 ± 0.8	5.38 ± 0.54	5.088 ± 0.044
MNNSEGLKSFQQSLADLPQWVSERLLQQINQLTNYEPVIGIMGKTGVGKSSLCNALFAGDISPVSDVAACTREPLRFRLQVGDRYITLMDLPGVGESGARDTEYAALYREQLPRLDLVLWLIKADDRALTVDEHFYHQVIGEVYRHKVLFVISQSDKAEPTSGGGQLSTAQKQNISRKICLLHELFQPVHPVCAVSVRLQWGLKVMAERMIKCLPREATSPVVSQLHPSFRTTVVREQARSDFGETVGAVLDSISAFPLIPAPVRAVIQAVRTTVVSVARAVWDFFF			3.51							6.63		
P30015	5.87 ± 0.33	5.75 ± 0.43	4.71 ± 0.31	2.92	6.31 ± 0.44	11.4 ± 3.1	5.5 ± 0.47	9.93 ± 0.82	5.97 ± 0.43	11.8 ± 0.42	6.18 ± 0.094	5.14 ± 0.24
MLELLFLLLPVAAAYGWYMGRRSAQQNKQDEANRLSRDYVAGVNFLLSNQQDKAVDLFLDMLKEDTGTVEAHLTLGNLFRSRGEVDRAIRIHQTLMESASLTYEQRLLAIQQLGRDYMAAGLYDRAEDMFNQLTDETDFRIGALQQLLQIYQATSEWQKAIDVAERLVKLGKDKQRVEIAHFYCELALQHMASDDLDRAMTLLKKGAAADKNSARVSIMMGRVFMAKGEYAKAVESLQRVISQDRELVSETLEMLQTCYQQLGKTAEWAEFLQRAVEENTGADAELMLADIIEARDGSEAAQVYITRQLQRHPTMRVFHKLMDYHLNEAEEGRAKESLMVLRDMVGEKVRSKPRYRCQKCGFTAYTLYWHCPSCRAWSTIKPIRGLDGL [P0AB58]		6.34 ± 0.37	6.039 ± 0.011	3.1 ± 0.047	5.91 ± 0.073	12.2 ± 0.99	6.101 ± 0.027	15.2 ± 0.67	5.63 ± 0.45	12.5 ± 0.6	5.9 ± 0.22	6.43 ± 0.094
MVSRRVQALLDQLRAQGIQDEQVLNALAAVPREKFVDEAFEQKAWDNIALPIGQGQTISQPYMVARMTELLELTPQSRVLEIGTGSGYQTAILAHLVQHVCSVERIKGLQWQARRRLKNLDLHNVSTRHGDGWQGWQARAPFDAIIVTAAPPEIPTALMTQLDEGGILVLPVGEEHQYLKRVRRRGGEFIIDTVEAVRFVPLVKGELA [P0A7A5]	3.95 ± 0.35	4.65 ± 0.94	3.64 ± 0.14	2.7898 ± 0.0014	4.83 ± 2.6	8.88 ± 0.65	3.85 ± 0.078	6.43 ± 0.091	5.57 ± 0.56	10.2 ± 0.73	5.04 ± 0.19	4.71 ± 0.85
MRFAIVVTGPAYGTQQASSAFQFAQALIADGHELSSVFFYREGVYNANQLTSPASDEFDLVRAWQQLNAQHGVALNICVAAALRRGVVDETEAGRLGLASSNLQQGFTLSGLGALAEASLTCDRVVQF	4.58		3.44				4.52		6.11	> 16	5.11	
MLDTNMKTQLKAYLEKLTKPVELIATLDDSAKSAEIKELLAEIAELSDKVTFKEDNSLPVRKPSFLITNPGSNQGPRFAGSPLGHEFTSLVLALLWTGGHPSKEAQSLLEQIRHIDGDFEFETYYSLSCHNCPDVVQALNLMSVLNPRIKHTAIDGGTFQNEITDRNVMGVPAVFVNGKEFGQGRMTLTEIVAKIDTGAEKRAAEELNKRDAYDVLIVGSGPAGAAAAIYSARKGIRTGLMGERFGGQILDTVDIENYISVPKTEGQKLAGALKVHVDEYDVDVIDSQSASKLIPAAVEGGLHQIETASGAVLKARSIIVATGAKWRNMNVPGEDQYRTKGVTYCPHCDGPLFKGKRVAVIGGGNSGVEAAIDLAGIVEHVTLLEFAPEMKADQVLQDKLRSLKNVDIILNAQTTEVKGDGSKVVGLEYRDRVSGDIHNIELAGIFVQIGLLPNTNWLEGAVERNRMGEIIIDAKCETNVKGVFAAGDCTTVPYKQIIIATGEGAKASLSAFDYLIRTKTA	2.59 ± 0.18	2.67 ± 0.26	2.68 ± 0.052	2.949 ± 0.0042	4.6889 ± 0.00064	7.3 ± 0.34	2.56 ± 0.047	3.37 ± 0.05	5.26 ± 0.2	9.723 ± 0.068	3.63 ± 0.29	2.81 ± 0.1
MRKITQAISAVCLLFALNSSAVALASSPSPLNPGTNVARLAEQAPIHWVSVAQIENSLAGRPPMAVGFDIDDTVLFSSPGFWRGKKTFSPESEDYLKNPVFWEKMNNGWDEFSIPKEVARQLIDMHVRRGDAIFFVTGRSPTKTETVSKTLADNFHIPATNMNPVIFAGDKPGQNTKSQWLQDKNIRIFYGDSDNDITAARDVGARGIRILRASNSTYKPLPQAGAFGEEVIVNSEY [P0AE22]		6.31 ± 0.14	5.83 ± 0.2	3.637 ± 0.033		11.7 ± 2.4	5.79 ± 0.22	> 16	6.42 ± 0.61	13.2 ± 0.27	6.66 ± 1.4	
MNNREKEILAILRRNPLIQQNEIADMLQISRSRVAAHIMDLMRKGRIKGKGYILTEQEYCVVVGTINMDIRGMADIRYPQSASHPGTIHCSAGGVGRNIAHNLALLGRDVHLLSVIGDDFYGEMLLEETRRAGVNVSGCVRLHGQSTSTYLAIANRDDQTVLAINDTHLLEQLTPQLLNGSRDLLRHAGVVLADCNLTAEALEWVFTLADEIPVFVDTVSEFKAGKIKHWLAHIHTLKPTLPELEILWGQAITSDADRNTAVNALHQQGVQQLFVYLPDESVYCSEKDGEQFLLTAPAHTTVDSFGADDGFMAGLVYSFLEGYSFRDSARFAVACAAISRASGSLNNPTLSADNALSLVPMV											5.83 ± 0.3	
MGIFKAKNPCTKNTIFTTSNTLIYGGFMISLNDFYEQICRKRRDLAYHMSECEWAVDTDVLEEDHPEIRIELGRMREQFWSSEKIGTRVRLYSCDVPWETRHHTVNGQLEIKEEYTELYDPAQECWKNLSSNLTKETFLPLVIEPFSINDIFKAHLMFASISFFWGKSIMSENENVAFKAFHRAAELFDKCIGMTWFNISVCNQKKLSEVRRSAGKKGGKSKAEVYHIIQLKLVELINDSVPNDGWKNKVVAVNELIEPLWDFIQMSEFEINNQNKKYRVATMSQDALVDTILNQWSLKNEDVKQAFDSAVRRKKRSK											5.49 ± 0.65	
MMLSKKNSETLENFSEKLEVEGRSLWQDARRRFMHNRAAVASLIVLVLIALFVILAPMLSQFAYDDTDWAMMSSAPDMESGHYFGTDSSGRDLLVRVAIGGRISLMVGVAAALVAVVVGTLYGSLSGYLGGKVDSVMMRLLEILNSFPFMFFVILLVTFFGQNILLIFVAIGMVSWLDMARIVRGQTLSLKRKEFIEAAQVGGVSTSGIVIRHIVPNVLGVVVVYASLLVPSMILFESFLSFLGLGTQEPLSSWGALLSDGANSMEVSPWLLLFPAGFLVVTLFCFNFIGDGLRDALDPKDR [P0AFH6]	5.51 ± 0.1		5.01 ± 0.59	3.23 ± 0.41	5.484 ± 0.036	10.8 ± 2.5	5.17 ± 0.17	8.49 ± 0.1	5.37 ± 0.46	9.83 ± 1.2	5.16 ± 0.26	4.46 ± 0.22
